Measurements from patent US20260001927A1.

Target: IL-10 receptors IL-10RA and IL-10RB engineered into U2OS osteosarcoma cells (UniProt Q13651)
Assay: cell-based or functional assay

- EC50, luminescence from ligand-induced IL-10RA/IL-10RB receptor dimerization in engineered U2OS cells: 0.0915 nM
Substance: recombinant human IL-10 (rhIL-10) (from UniProt P22301 19-178) (ligand)
